# Numbered stars: 1 amine (or outer) side, 2 acyl side, 3 side chain; on linkers, the order of the positions; unused ones are H or OH. Bridge positions count the residues as written; N and C are the ends. Side chains are listed from the residue outwards. Ends that are not written are not given here. * marks the point of attachment. C20 diacid = O=C(O)CCCCCCCCCCCCCCCCCCC(=O)*; γGlu = O=C(O)[C@H](CCC(=O)[*:2])N[*:1]; AEEA = NCCOCCOCC(=O)O
# T1: human calcitonin receptor (human, UniProt P30988 25-474)
# T1 sequence (looked up): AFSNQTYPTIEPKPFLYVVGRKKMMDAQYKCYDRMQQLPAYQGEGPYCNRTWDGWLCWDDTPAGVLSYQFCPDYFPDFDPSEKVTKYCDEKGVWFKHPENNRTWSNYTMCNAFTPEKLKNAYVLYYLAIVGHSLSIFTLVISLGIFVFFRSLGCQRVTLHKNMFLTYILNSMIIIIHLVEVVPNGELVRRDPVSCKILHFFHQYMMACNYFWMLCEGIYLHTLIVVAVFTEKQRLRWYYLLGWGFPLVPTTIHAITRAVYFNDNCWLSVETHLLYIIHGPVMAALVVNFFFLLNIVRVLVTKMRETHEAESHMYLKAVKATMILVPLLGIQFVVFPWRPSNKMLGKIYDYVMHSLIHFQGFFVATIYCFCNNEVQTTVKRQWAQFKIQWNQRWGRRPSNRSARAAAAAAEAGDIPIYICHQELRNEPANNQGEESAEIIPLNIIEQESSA
# B1: N^ε1-[2-[2-[2-[[(4S)-4-carboxy-4-(19-carboxynonadecanoylamino)butanoyl]amino]ethoxy]ethoxy]acetyl]-[His14,Arg17,Pro21,Pro27,Pro31]-h-amylin (peptide)
# peptide: K([AEEA-γGlu-C20 diacid])CNTATCATQRLAHFLRHSSPNFGAIPSSTPVGSNTY-NH2
# modifications: disulfide 2-7; N-terminus assumed
# SMILES: CC[C@H](C)[C@H](NC(=O)[C@H](C)NC(=O)CNC(=O)[C@H](Cc1ccccc1)NC(=O)[C@H](CC(N)=O)NC(=O)[C@@H]1CCCN1C(=O)[C@H](CO)NC(=O)[C@H](CO)NC(=O)[C@H](Cc1c[nH]cn1)NC(=O)[C@H](CCCNC(=N)N)NC(=O)[C@H](CC(C)C)NC(=O)[C@H](Cc1ccccc1)NC(=O)[C@H](Cc1c[nH]cn1)NC(=O)[C@H](C)NC(=O)[C@H](CC(C)C)NC(=O)[C@H](CCCNC(=N)N)NC(=O)[C@H](CCC(N)=O)NC(=O)[C@@H](NC(=O)[C@H](C)NC(=O)[C@@H]1CSSC[C@H](NC(=O)[C@@H](N)CCCCNC(=O)COCCOCCNC(=O)CC[C@H](NC(=O)CCCCCCCCCCCCCCCCCCC(=O)O)C(=O)O)C(=O)N[C@@H](CC(N)=O)C(=O)N[C@@H]([C@@H](C)O)C(=O)N[C@@H](C)C(=O)N[C@@H]([C@@H](C)O)C(=O)N1)[C@@H](C)O)C(=O)N1CCC[C@H]1C(=O)N[C@@H](CO)C(=O)N[C@@H](CO)C(=O)N[C@H](C(=O)N1CCC[C@H]1C(=O)N[C@H](C(=O)NCC(=O)N[C@@H](CO)C(=O)N[C@@H](CC(N)=O)C(=O)N[C@H](C(=O)N[C@@H](Cc1ccc(O)cc1)C(N)=O)[C@@H](C)O)C(C)C)[C@@H](C)O
# notes: also called compound 61
# B2: N^ε1-[2-[2-[2-[[(4S)-4-carboxy-4-(19-carboxynonadecanoylamino)butanoyl]amino]ethoxy]ethoxy]acetyl]-[His14,Arg17,Pro21,Pro27,Pro34]-h-amylin (peptide)
# peptide: K([AEEA-γGlu-C20 diacid])CNTATCATQRLAHFLRHSSPNFGAIPSSTNVGPNTY-NH2
# modifications: disulfide 2-7; N-terminus assumed
# SMILES: CC[C@H](C)[C@H](NC(=O)[C@H](C)NC(=O)CNC(=O)[C@H](Cc1ccccc1)NC(=O)[C@H](CC(N)=O)NC(=O)[C@@H]1CCCN1C(=O)[C@H](CO)NC(=O)[C@H](CO)NC(=O)[C@H](Cc1c[nH]cn1)NC(=O)[C@H](CCCNC(=N)N)NC(=O)[C@H](CC(C)C)NC(=O)[C@H](Cc1ccccc1)NC(=O)[C@H](Cc1c[nH]cn1)NC(=O)[C@H](C)NC(=O)[C@H](CC(C)C)NC(=O)[C@H](CCCNC(=N)N)NC(=O)[C@H](CCC(N)=O)NC(=O)[C@@H](NC(=O)[C@H](C)NC(=O)[C@@H]1CSSC[C@H](NC(=O)[C@@H](N)CCCCNC(=O)COCCOCCNC(=O)CC[C@H](NC(=O)CCCCCCCCCCCCCCCCCCC(=O)O)C(=O)O)C(=O)N[C@@H](CC(N)=O)C(=O)N[C@@H]([C@@H](C)O)C(=O)N[C@@H](C)C(=O)N[C@@H]([C@@H](C)O)C(=O)N1)[C@@H](C)O)C(=O)N1CCC[C@H]1C(=O)N[C@@H](CO)C(=O)N[C@@H](CO)C(=O)N[C@H](C(=O)N[C@@H](CC(N)=O)C(=O)N[C@H](C(=O)NCC(=O)N1CCC[C@H]1C(=O)N[C@@H](CC(N)=O)C(=O)N[C@H](C(=O)N[C@@H](Cc1ccc(O)cc1)C(N)=O)[C@@H](C)O)C(C)C)[C@@H](C)O
# notes: also called compound 68
# B3: N^ε1-[2-[2-[2-[[(4S)-4-carboxy-4-(19-carboxynonadecanoylamino)butanoyl]amino]ethoxy]ethoxy]acetyl]-[Lys14,Arg17,Pro21,Pro27,Pro31]-h-amylin (peptide)
# peptide: K([AEEA-γGlu-C20 diacid])CNTATCATQRLAKFLRHSSPNFGAIPSSTPVGSNTY-NH2
# modifications: disulfide 2-7; N-terminus assumed
# SMILES: CC[C@H](C)[C@H](NC(=O)[C@H](C)NC(=O)CNC(=O)[C@H](Cc1ccccc1)NC(=O)[C@H](CC(N)=O)NC(=O)[C@@H]1CCCN1C(=O)[C@H](CO)NC(=O)[C@H](CO)NC(=O)[C@H](Cc1c[nH]cn1)NC(=O)[C@H](CCCNC(=N)N)NC(=O)[C@H](CC(C)C)NC(=O)[C@H](Cc1ccccc1)NC(=O)[C@H](CCCCN)NC(=O)[C@H](C)NC(=O)[C@H](CC(C)C)NC(=O)[C@H](CCCNC(=N)N)NC(=O)[C@H](CCC(N)=O)NC(=O)[C@@H](NC(=O)[C@H](C)NC(=O)[C@@H]1CSSC[C@H](NC(=O)[C@@H](N)CCCCNC(=O)COCCOCCNC(=O)CC[C@H](NC(=O)CCCCCCCCCCCCCCCCCCC(=O)O)C(=O)O)C(=O)N[C@@H](CC(N)=O)C(=O)N[C@@H]([C@@H](C)O)C(=O)N[C@@H](C)C(=O)N[C@@H]([C@@H](C)O)C(=O)N1)[C@@H](C)O)C(=O)N1CCC[C@H]1C(=O)N[C@@H](CO)C(=O)N[C@@H](CO)C(=O)N[C@H](C(=O)N1CCC[C@H]1C(=O)N[C@H](C(=O)NCC(=O)N[C@@H](CO)C(=O)N[C@@H](CC(N)=O)C(=O)N[C@H](C(=O)N[C@@H](Cc1ccc(O)cc1)C(N)=O)[C@@H](C)O)C(C)C)[C@@H](C)O
# notes: also called compound 74
# B4: N^ε1-[2-[2-[2-[[(4S)-4-carboxy-4-(19-carboxynonadecanoylamino)butanoyl]amino]ethoxy]ethoxy]acetyl]-[Thr14,Arg17,Pro21,Pro27,Pro31]-h-amylin (peptide)
# peptide: K([AEEA-γGlu-C20 diacid])CNTATCATQRLATFLRHSSPNFGAIPSSTPVGSNTY-NH2
# modifications: disulfide 2-7; N-terminus assumed
# SMILES: CC[C@H](C)[C@H](NC(=O)[C@H](C)NC(=O)CNC(=O)[C@H](Cc1ccccc1)NC(=O)[C@H](CC(N)=O)NC(=O)[C@@H]1CCCN1C(=O)[C@H](CO)NC(=O)[C@H](CO)NC(=O)[C@H](Cc1c[nH]cn1)NC(=O)[C@H](CCCNC(=N)N)NC(=O)[C@H](CC(C)C)NC(=O)[C@H](Cc1ccccc1)NC(=O)[C@@H](NC(=O)[C@H](C)NC(=O)[C@H](CC(C)C)NC(=O)[C@H](CCCNC(=N)N)NC(=O)[C@H](CCC(N)=O)NC(=O)[C@@H](NC(=O)[C@H](C)NC(=O)[C@@H]1CSSC[C@H](NC(=O)[C@@H](N)CCCCNC(=O)COCCOCCNC(=O)CC[C@H](NC(=O)CCCCCCCCCCCCCCCCCCC(=O)O)C(=O)O)C(=O)N[C@@H](CC(N)=O)C(=O)N[C@@H]([C@@H](C)O)C(=O)N[C@@H](C)C(=O)N[C@@H]([C@@H](C)O)C(=O)N1)[C@@H](C)O)[C@@H](C)O)C(=O)N1CCC[C@H]1C(=O)N[C@@H](CO)C(=O)N[C@@H](CO)C(=O)N[C@H](C(=O)N1CCC[C@H]1C(=O)N[C@H](C(=O)NCC(=O)N[C@@H](CO)C(=O)N[C@@H](CC(N)=O)C(=O)N[C@H](C(=O)N[C@@H](Cc1ccc(O)cc1)C(N)=O)[C@@H](C)O)C(C)C)[C@@H](C)O
# notes: also called compound 75
# B5: N^ε1-[(4S)-4-carboxy-4-(19-carboxynonadecanoylamino)butanoyl]-[Ala14,Arg17,Pro21,Pro27,His34]-h-amylin (peptide)
# peptide: K([γGlu-C20 diacid])CNTATCATQRLAAFLRHSSPNFGAIPSSTNVGHNTY-NH2
# modifications: disulfide 2-7; N-terminus assumed
# SMILES: CC[C@H](C)[C@H](NC(=O)[C@H](C)NC(=O)CNC(=O)[C@H](Cc1ccccc1)NC(=O)[C@H](CC(N)=O)NC(=O)[C@@H]1CCCN1C(=O)[C@H](CO)NC(=O)[C@H](CO)NC(=O)[C@H](Cc1c[nH]cn1)NC(=O)[C@H](CCCNC(=N)N)NC(=O)[C@H](CC(C)C)NC(=O)[C@H](Cc1ccccc1)NC(=O)[C@H](C)NC(=O)[C@H](C)NC(=O)[C@H](CC(C)C)NC(=O)[C@H](CCCNC(=N)N)NC(=O)[C@H](CCC(N)=O)NC(=O)[C@@H](NC(=O)[C@H](C)NC(=O)[C@@H]1CSSC[C@H](NC(=O)[C@@H](N)CCCCNC(=O)CC[C@H](NC(=O)CCCCCCCCCCCCCCCCCCC(=O)O)C(=O)O)C(=O)N[C@@H](CC(N)=O)C(=O)N[C@@H]([C@@H](C)O)C(=O)N[C@@H](C)C(=O)N[C@@H]([C@@H](C)O)C(=O)N1)[C@@H](C)O)C(=O)N1CCC[C@H]1C(=O)N[C@@H](CO)C(=O)N[C@@H](CO)C(=O)N[C@H](C(=O)N[C@@H](CC(N)=O)C(=O)N[C@H](C(=O)NCC(=O)N[C@@H](Cc1c[nH]cn1)C(=O)N[C@@H](CC(N)=O)C(=O)N[C@H](C(=O)N[C@@H](Cc1ccc(O)cc1)C(N)=O)[C@@H](C)O)C(C)C)[C@@H](C)O
# notes: also called compound 93
# B6: N^ε1-[2-[2-[2-[[(4S)-4-carboxy-4-(19-carboxynonadecanoylamino)butanoyl]amino]ethoxy]ethoxy]acetyl]-[Ser14,Arg17,Pro21,Pro27,Pro31]-h-amylin (peptide)
# peptide: K([AEEA-γGlu-C20 diacid])CNTATCATQRLASFLRHSSPNFGAIPSSTPVGSNTY-NH2
# modifications: disulfide 2-7; N-terminus assumed
# SMILES: CC[C@H](C)[C@H](NC(=O)[C@H](C)NC(=O)CNC(=O)[C@H](Cc1ccccc1)NC(=O)[C@H](CC(N)=O)NC(=O)[C@@H]1CCCN1C(=O)[C@H](CO)NC(=O)[C@H](CO)NC(=O)[C@H](Cc1c[nH]cn1)NC(=O)[C@H](CCCNC(=N)N)NC(=O)[C@H](CC(C)C)NC(=O)[C@H](Cc1ccccc1)NC(=O)[C@H](CO)NC(=O)[C@H](C)NC(=O)[C@H](CC(C)C)NC(=O)[C@H](CCCNC(=N)N)NC(=O)[C@H](CCC(N)=O)NC(=O)[C@@H](NC(=O)[C@H](C)NC(=O)[C@@H]1CSSC[C@H](NC(=O)[C@@H](N)CCCCNC(=O)COCCOCCNC(=O)CC[C@H](NC(=O)CCCCCCCCCCCCCCCCCCC(=O)O)C(=O)O)C(=O)N[C@@H](CC(N)=O)C(=O)N[C@@H]([C@@H](C)O)C(=O)N[C@@H](C)C(=O)N[C@@H]([C@@H](C)O)C(=O)N1)[C@@H](C)O)C(=O)N1CCC[C@H]1C(=O)N[C@@H](CO)C(=O)N[C@@H](CO)C(=O)N[C@H](C(=O)N1CCC[C@H]1C(=O)N[C@H](C(=O)NCC(=O)N[C@@H](CO)C(=O)N[C@@H](CC(N)=O)C(=O)N[C@H](C(=O)N[C@@H](Cc1ccc(O)cc1)C(N)=O)[C@@H](C)O)C(C)C)[C@@H](C)O
# notes: also called compound 73
# Biological target: T1, human calcitonin receptor
# Assay: cell-based or functional assay
row,hCTR funct. EC50 [pM],Binder
1,554,B1
2,932,B2
3,37500,B3
4,9070,B4
5,1140,B5
6,961,B6

# — US20140087995A1 (published 2014)
